{"source": "paper PMC9188649", "about": "(Molecular cell, 2022)", "proteins": {"B1": {"name": "hSARM1 (residues 28–724), sample for cryo-EM (enzyme, human, UniProt Q6SZW1 28-724, looked up)", "chain": "LAVPGPDGGGGTGPWWAAGGRGPREVSPGAGTEVQDALERALPELQQALSALKQAGGARAVGAGLAEVFQLVEEAWLLPAVGREVAQGLCDAIRLDGGLDLLLRLLQAPELETRVQAARLLEQILVAENRDRVARIGLGVILNLAKEREPVELARSVAGILEHMFKHSEETCQRLVAAGGLDAVLYWCRRTDPALLRHCALALGNCALHGGQAVQRRMVEKRAAEWLFPLAFSKEDELLRLHACLAVAVLATNKEVEREVERSGTLALVEPLVASLDPGRFARCLVDASDTSQGRGPDDLQRLVPLLDSNRLEAQCIGAFYLCAEAAIKSLQGKTKVFSDIGAIQSLKRLVSYSTNGTKSALAKRALRLLGEEVPRPILPSVPSWKEAEVQTWLQQIGFSKYCESFREQQVDGDLLLRLTEEELQTDLGMKSGITRKRFFRELTELKTFANYSTCDRSNLADWLGSLDPRFRQYTYGLVSCGLDRSLLHRVSEQQLLEDCGIHLGVHRARILTAAREMLHSPLPCTGGKPSGDTPDVFISYRRNSGSQLASLLKVHLQLHGFSVFIDVEKLEAGKFEDKLIQSVMGARNFVLVLSPGALDKCMQDHDCKDWVHKEIVTALSCGKNIVPIIDGFEWPEPQVLPEDMQAVLTFNGIKWSHEYQEATIEKIIRFLQGRSSRDSSAGSDTSLEGAAPMGPT"}}, "target": "the molecule itself", "experiment": "cryo-EM structure", "data": [{"protein": "B1", "values": [{"measurement": "stoichiometry N", "value": 8}]}]}
